Columns and labels:
[1] = biological target: T1, MLO-Y4 cell surface proteins (Mus musculus, UniProt Q8BJQ9); test: Crosslinking/co-immunoprecipitation/mass spectrometry (TMT quantitative proteomics) to identify irisin receptors; format: binding; details: co-precipitated protein Csgalnact1 (CGAT1_MOUSE)
T1 construct: endogenous in cells; host or cells: MLO-Y4
T1 sequence (Q8BJQ9 1-530): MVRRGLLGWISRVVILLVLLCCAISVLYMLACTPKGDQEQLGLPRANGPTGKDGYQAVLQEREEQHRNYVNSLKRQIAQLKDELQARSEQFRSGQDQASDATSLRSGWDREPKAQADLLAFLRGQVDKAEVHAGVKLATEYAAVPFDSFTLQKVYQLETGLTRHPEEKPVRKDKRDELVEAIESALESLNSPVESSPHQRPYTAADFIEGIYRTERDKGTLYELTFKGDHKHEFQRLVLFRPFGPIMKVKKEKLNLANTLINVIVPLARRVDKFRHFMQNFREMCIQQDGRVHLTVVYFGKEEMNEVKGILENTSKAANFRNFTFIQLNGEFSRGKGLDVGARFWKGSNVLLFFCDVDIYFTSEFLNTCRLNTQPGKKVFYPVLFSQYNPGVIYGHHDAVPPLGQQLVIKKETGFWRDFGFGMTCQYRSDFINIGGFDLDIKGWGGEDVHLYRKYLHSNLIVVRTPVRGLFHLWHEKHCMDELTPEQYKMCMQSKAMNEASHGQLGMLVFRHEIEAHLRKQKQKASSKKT
Outline: (§1)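 Relative protein abundance came from 6-plex TMT MS3 quantitation on an Orbitrap Fusion Lumos, after in-gel trypsin digestion of Coomassie-stained SDS-PAGE lanes. Input was a Ni-NTA pulldown (250 mM imidazole elution) of lysates from murine MLO-Y4 cells. These cells were treated on ice with His-tagged irisin or adipsin (10 nM, 20 min) in serum-free medium, then crosslinked with 1.5 mM DTSSP for 30 min.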

[2] = biological target: T2, MLO-Y4 cell surface proteins (Mus musculus, UniProt P62880); test: as above; format: binding; details: co-precipitated protein Gnb2 (GBB2_MOUSE)
T2 construct: endogenous in cells; host or cells: MLO-Y4
Outline: as §1

T2 sequence (P62880 whole entry): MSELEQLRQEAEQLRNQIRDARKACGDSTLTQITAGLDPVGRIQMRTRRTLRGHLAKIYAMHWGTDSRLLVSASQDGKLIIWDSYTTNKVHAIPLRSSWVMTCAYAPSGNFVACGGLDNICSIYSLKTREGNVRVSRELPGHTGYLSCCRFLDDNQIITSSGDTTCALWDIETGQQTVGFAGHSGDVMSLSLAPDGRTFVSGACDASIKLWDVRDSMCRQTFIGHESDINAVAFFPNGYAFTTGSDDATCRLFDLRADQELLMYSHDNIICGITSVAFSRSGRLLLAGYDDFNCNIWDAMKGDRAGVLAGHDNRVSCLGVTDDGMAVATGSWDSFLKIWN

Substance adipsin has a TMT signal-to-noise ratio [1] of 2426.62 and a TMT signal-to-noise ratio [2] of 294.957.

Reference: patent publication US20210063414A1, “METHODS FOR PREVENTING AND/OR TREATING BONE LOSS CONDITIONS BY MODULATING IRISIN” (Dana-Farber Cancer Institute, Inc., priority 2018, published 2021)
